B1: S. japonicus Tup11 WD40 domain (amino acids 301–630), wild type [S. japonicus] / C-terminal region of S. pombe Fep1 (amino acids 319–564) [S. pombe] (parent complex)
chain 1: ERTKESGQDWYAVYNEKMPKRMSIGLVHTLEHKSVVCCVRFSADGKYLATGCNRAAEIFDVQTGQKLATFEQENTNPETDLYIRSVAFSPDGKYLVTGAEDRQIRMWDIATGKVKHVFVGHEQDIYSLDYSRDGRYIVSGSGDHTARLWEAETGKCVLTLAIENGVTAVAFSPNNQFIAAGSLDQVIRVWSITGTLLKKLEGHRESVYSIAFSADGKYLASGSLDKTMRLWELKLDENAKTCSKASAISTYTGHSNFVLSVAISPNGKWAVSGSKDRSVQFWNLKTDELYLTFQGHKNSVISVCFSPDGKLFATGSGDLRARIWSIEDTA
chain 2: AAGEPDNNGKVYYSYGPTQEQSILPLPENKHEGLPPYQNEYVPNGIRANQVVYPGQLVAVGNDSSKQLSESTTSNTDNNGVATANQSNPLGMKFHLPPILPVGESVCLPPRTSAKPRIAEGIASLLNPEEPPSNSDKQPSMSNGPKSEVSPSQSQQAPLIQSSTSPVSLQFPPEVQGSNVDKRNYALNVLSQLRSQHDLMIQELHNLNQHIQQIDEWLRSSDNENMASEHIKSSTPAVVASGALQT

In the experiment the parent is B1. The experiment in a line: ITC; parent: -6.6; read off a plot.
chain 1 ERTKESGQDWYAVYNEKMPKRMSIGLVHTLEHKSVVCCVRFSADGKYLATGCNRAAEIFDVQTGQKLATFEQENTNPETDLYIRSVAFSPDGKYLVTGAEDRQIRMWDIATGKVKHVFVGHEQDIYSLDYSRDGRYIVSGSGDHTARLWEAETGKCVLTLAIENGVTAVAFSPNNQFIAAGSLDQVIRVWSITGTLLKKLEGHRESVYSIAFSADGKYLASGSADKTMRLWELKLDENAKTCSKASAISTYTGHSNFVLSVAISPNGKWAVSGSKDRSVQFWNLKTDELYLTFQGHKNSVISVCFSPDGKLFATGSGDLRARIWSIEDTA [chain 1 L224A]: the dG was about -6 kcal/mol.
Consider chain 1 ERTKESGQDWYAVYNEKMPKRMSIGLVHTLEHKSVVCCVRFSADGKYLATGCNRAAEIFDVQTGQKLATFEQENTNPETDLYIRSVAFSPDGKYLVTGAEDRQIRMWDIATGKVKHVFVGHEQDIASLDYSRDGRYIVSGSGDHTARLWEAETGKCVLTLAIENGVTAVAFSPNNQFIAAGSLDQVIRVWSITGTLLKKLEGHRESVYSIAFSADGKYLASGSLDKTMRLWELKLDENAKTCSKASAISTYTGHSNFVLSVAISPNGKWAVSGSKDRSVQFWNLKTDELYLTFQGHKNSVISVCFSPDGKLFATGSGDLRARIWSIEDTA [chain 1 Y126A], for which the dG was about -5.6 kcal/mol.
On to chain 1 ERTKESGQDWYAVYNEKMPKRMSIGLVHTLEHKSVVCCVRFSADGKYLATGCNRAAEIFDVQTGQKLATFEQENTNPETDLYIRSVAFSPDGKYLVTGAEDRQIRMWDIATGKVKHVFVGHEQDIYSLDYSRDGRYIVSGSGDHTARLWEAETGKCVLTLAIENGVAAVAFSPNNQFIAAGSLDQVIRVWSITGTLLKKLEGHRESVYSIAFSADGKYLASGSLDKTMRLWELKLDENAKTCSKASAISTYTGHSNFVLSVAISPNGKWAVSGSKDRSVQFWNLKTDELYLTFQGHKNSVISVCFSPDGKLFATGSGDLRARIWSIEDTA [chain 1 T167A], for which the dG is about -6.4 kcal/mol.
For the variant chain 1 ERTKESGQDWYAVYNEKMPKRMSIGLVHTLEHKSVVCCVRFSADGKYLATGCNRAAEIFDVQTGQKLATFEQENTNPETDLYIRSVAFSPDGKYLVTGAEDRQIRMWDIATGKVKHVFVGHEQDIYSLDYSRDGRYIVSGSGDHTARLWEAETGKCVLTLAIENGVTAVAFSPNNQFIAAGSSDQVIRVWSITGTLLKKLEGHRESVYSIAFSADGKYLASGSLDKTMRLWELKLDENAKTCSKASAISTYTGHSNFVLSVAISPNGKWAVSGSKDRSVQFWNLKTDELYLTFQGHKNSVISVCFSPDGKLFATGSGDLRARIWSIEDTA [chain 1 L183S], the dG is about -6.8 kcal/mol.
As to chain 1 ERTKESGQDWYAVYNEKMPKRMSIGLVHTLEHKSVVCCVRFSADGKYLATGCNRAAEIFDVQTGQKLATFEQENTNPETDLYIASVAFSPDGKYLVTGAEDRQIRMWDIATGKVKHVFVGHEQDIYSLDYSRDGRYIVSGSGDHTARLWEAETGKCVLTLAIENGVTAVAFSPNNQFIAAGSLDQVIRVWSITGTLLKKLEGHRESVYSIAFSADGKYLASGSLDKTMRLWELKLDENAKTCSKASAISTYTGHSNFVLSVAISPNGKWAVSGSKDRSVQFWNLKTDELYLTFQGHKNSVISVCFSPDGKLFATGSGDLRARIWSIEDTA [chain 1 R84A], the dG was about -5.4 kcal/mol.
The result for chain 1 ERTKESGQDWYAVYNEKMPKRMSIGLVHTLEHKSVVCCVRFSADGKYLATGCNRAAEIFDVQTGQKLATFEQENTNPETDLYIRSVAFSPDGKYLVTGAEDRQIRMWDIATGKVKHVFVGHEQDIYSLDYSRDGRYIVSGSGDHTARLWEAETGKCVLTLAIENGVTAVAFSPNNQFIAAGSLDQVIRVWSITGTLLKKLEGHRESVYSIAFSADGKYLASGSLDKTMRLWELKLDENAKTCSKASAISTYTGHSNFVLSVAISPNGKWAVSGSKDRSVQFWNLKTDELYLTFQGHKNSVASVCFSPDGKLFATGSGDLRARIWSIEDTA [chain 1 I301A] reads about -5.4 kcal/mol; that for chain 1 ERTKESGQDWYAVYNEKMPKRMSIGLVHTLEHKSVVCCVRFSADGKYLATGCNRAAEIFDVQTGQKLATFEQENTNPETDLYIRSVAFSPDGKYLVTGAEDRQIRMWDIATGKVKHVFVGHEQDIYSLDYSRDGRYIVSGSGDHTARLWEAETGKCVLTLAIENGVTAVAFSPNNQFIAAGSLDQVIRVWSITGTLLKKLEGHRESVYSIAFSADGKYLASGSLDKTMRLWELKLDENAKTCSKASAISTYTGHSNAVLSVAISPNGKWAVSGSKDRSVQFWNLKTDELYLTFQGHKNSVISVCFSPDGKLFATGSGDLRARIWSIEDTA [chain 1 F257A], about -5.9 kcal/mol; that for chain 1 ERTKESGQDWYAVYNEKMPKRMSIGLVHTLEHKSVVACVRFSADGKYLATGCNRAAEIFDVQTGQKLATFEQENTNPETDLYIRSVAFSPDGKYLVTGAEDRQIRMWDIATGKVKHVFVGHEQDIYSLDYSRDGRYIVSGSGDHTARLWEAETGKCVLTLAIENGVTAVAFSPNNQFIAAGSLDQVIRVWSITGTLLKKLEGHRESVYSIAFSADGKYLASGSLDKTMRLWELKLDENAKTCSKASAISTYTGHSNFVLSVAISPNGKWAVSGSKDRSVQFWNLKTDELYLTFQGHKNSVISVCFSPDGKLFATGSGDLRARIWSIEDTA [chain 1 C37A], about -6.2 kcal/mol.
The result for chain 1 ERTKESGQDWYAVYNEKMPKRMSIGLVHTLEHKSVVCCVRFSADGKYLATGCNRAAEIFDVQTGQKLATFEQENTNPETDLYIRSVAFSPDGKYLVTGAADRQIRMWDIATGKVKHVFVGHEQDIYSLDYSRDGRYIVSGSGDHTARLWEAETGKCVLTLAIENGVTAVAFSPNNQFIAAGSLDQVIRVWSITGTLLKKLEGHRESVYSIAFSADGKYLASGSLDKTMRLWELKLDENAKTCSKASAISTYTGHSNFVLSVAISPNGKWAVSGSKDRSVQFWNLKTDELYLTFQGHKNSVISVCFSPDGKLFATGSGDLRARIWSIEDTA [chain 1 E100A] reads about -6.2 kcal/mol; that for chain 1 ERTKESGQDWYAVYNEKMPKRMSIGLVHTLEHKSVVCCVRFSADGKYLATGCNRAAEIFDVQTGQKLATFEQENTNPETDLYIRSVAFSPDGKYLVTGAEDRQIRMWDIATGKVKHVFVGHEQAIYSLDYSRDGRYIVSGSGDHTARLWEAETGKCVLTLAIENGVTAVAFSPNNQFIAAGSLDQVIRVWSITGTLLKKLEGHRESVYSIAFSADGKYLASGSLDKTMRLWELKLDENAKTCSKASAISTYTGHSNFVLSVAISPNGKWAVSGSKDRSVQFWNLKTDELYLTFQGHKNSVISVCFSPDGKLFATGSGDLRARIWSIEDTA [chain 1 D124A], about -6.9 kcal/mol.
Consider chain 1 ERTKESGQDWYAVYNEKMPKRMSIGLVHTLEHKSVVCCVRFSADGKYLATGCNRAAEIFDVQTGQKLATFEQENTNPETDLYIRSVAFSPDGKYLVTGAEDRQIRMWDIATGKVKHVFVGHEQDIYSLDYSRDGRYIVSGSGDHTARLWEAETGKCVLTLAIENGVTAVAFSPNNQFIAAGSLDQVIRVWSITGTLLKKLEGHRESVASIAFSADGKYLASGSLDKTMRLWELKLDENAKTCSKASAISTYTGHSNFVLSVAISPNGKWAVSGSKDRSVQFWNLKTDELYLTFQGHKNSVISVCFSPDGKLFATGSGDLRARIWSIEDTA [chain 1 Y208A], for which the dG was about -5.6 kcal/mol.

The values are drawn from publication PMC3419727, “Identifying the Hotspots on the Top Faces of WD40-Repeat Proteins from Their Primary Sequences by β-Bulges and DHSW Tetrads” (PLoS ONE, 2012).
